According to the Immune Epitope Database (IEDB):

What was measured:
HLA-A*02:01 [1] = assay: IEDB peptide-MHC binding, purified MHC/direct/fluorescence; filed as Kd, often an IC50 or EC50 that approximates it; ≥ and ≤ were set here for values at or beyond the usual limits of such assays
HLA-A*03:01 = assay: as above
HLA-A*11:01 = assay: as above
HLA-A*26:01 = assay: as above
HLA-A*31:01 = assay: as above
HLA-A*69:01 = assay: as above
HLA-B*07:02 = assay: as above
HLA-B*08:01 = assay: as above
HLA-B*15:01 [2] = assay: as above; settings: source organism: Campylobacter jejuni
HLA-B*15:17 = assay: as above; settings: source organism: Campylobacter jejuni RM1221
HLA-B*27:05 = assay: as above
HLA-B*35:01 = assay: as above; settings: source organism: Campylobacter jejuni
HLA-B*40:01 = assay: as above
HLA-B*44:02 = assay: as above; settings: source organism: Campylobacter jejuni RM1221
HLA-B*57:01 = assay: as above; settings: source organism: Campylobacter jejuni RM1221
HLA-B*58:01 = assay: as above
HLA-C*15:02 = assay: as above; settings: source organism: Campylobacter jejuni subsp. jejuni NCTC 11168 = ATCC 700819
HLA-A*02:01 [3] = assay: IEDB peptide-MHC binding, purified MHC/competitive/fluorescence; ≥ and ≤ were set here for values at or beyond the usual limits of such assays; settings: source organism: Zaire ebolavirus
HLA-B*15:01 [4] = assay: as above; settings: source organism: Zaire ebolavirus
HLA-A*24:02 = assay: as above; settings: source organism: Zaire ebolavirus
HLA-A*01:01 = assay: IEDB peptide-MHC binding, purified MHC/direct/fluorescence; filed as Kd, often an IC50 or EC50 that approximates it; ≥ and ≤ were set here for values at or beyond the usual limits of such assays; settings: source organism: Vibrio parahaemolyticus
HLA-A*24:03 = assay: as above; settings: source organism: Vibrio parahaemolyticus
HLA-A*30:01 = assay: as above; settings: source organism: Vibrio parahaemolyticus
[5] = source organism: Campylobacter jejuni RM1221
[6] = source organism: Vibrio parahaemolyticus

KSNEKNMDF
Kd (HLA-A*02:01 [1]; [5]): ≥ 20 µM | Kd (HLA-A*03:01; [5]): ≥ 20 µM | Kd (HLA-A*11:01; [5]): ≥ 20 µM | Kd (HLA-A*26:01; [5]): ≥ 20 µM | Kd (HLA-A*31:01; [5]): ≥ 20 µM | Kd (HLA-A*69:01; [5]): ≥ 20 µM | Kd (HLA-B*07:02; [5]): ≥ 20 µM | Kd (HLA-B*08:01; [5]): ≥ 20 µM | Kd (HLA-B*15:01 [2]): 0.215 µM | Kd (HLA-B*15:17): 0.0073 µM | Kd (HLA-B*27:05; [5]): ≥ 20 µM | Kd (HLA-B*35:01): 3.16 µM | Kd (HLA-B*40:01; [5]): ≥ 20 µM | Kd (HLA-B*44:02): ≥ 20 µM | Kd (HLA-B*57:01): 0.467 µM | Kd (HLA-B*58:01; source organism: Campylobacter jejuni): 0.063 µM | Kd (HLA-C*15:02): 0.15 µM

QLIIQAFEA
IC50 (HLA-A*02:01 [3]): 0.884 µM | IC50 (HLA-B*15:01 [4]): ≥ 720 µM

RATTELRTF
IC50 (HLA-A*24:02): 0.6 µM | IC50 (HLA-B*15:01 [4]): 55.5 µM

RTHTLRDAK
Kd (HLA-A*01:01): ≥ 20 µM | Kd (HLA-A*02:01 [1]; [6]): ≥ 20 µM | Kd (HLA-A*03:01; [6]): 0.93 µM | Kd (HLA-A*11:01; [6]): 0.0535 µM | Kd (HLA-A*24:03): 0.472 µM | Kd (HLA-A*26:01; [6]): ≥ 20 µM | Kd (HLA-A*30:01): 0.0209 µM | Kd (HLA-A*31:01; [6]): 0.134 µM | Kd (HLA-A*69:01; [6]): ≥ 20 µM | Kd (HLA-B*07:02; [6]): ≥ 20 µM | Kd (HLA-B*08:01; [6]): ≥ 20 µM | Kd (HLA-B*27:05; [6]): ≥ 20 µM | Kd (HLA-B*40:01; [6]): ≥ 20 µM | Kd (HLA-B*58:01; [6]): ≥ 20 µM
